According to a protein production outcome set (Wang et al. 2014):

test: label from the status in PepcDB records
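Further: failed if final PepcDB status was selected cloned or expressed and not failed if soluble or beyond.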

Question: For “MQRYDAVISGAGPAGCSAALSLAQKGRRVLLIDKARFPREKICGDGVTAASTELLEEMGVLELLRQRPGSLTEFRGATFVSPGGTVVQGRILRNGHLSGSSYVIPRMVLDDSLVSRVKEHSSITFLDKTTVTGLVMDGDRARGVATSAGEFCGRIIIAADGAYSPIAKQLDLWNRDKRQQGFAMRAWFSGVEGLGDSIELCYDKAMLPGYGWIFPAGEQRANVGVFLLPRFADQRSTKRLFKSFVKENAFAAARLKNAVMEPGSLKSWPLPFGSFAGRRGRGNVLLAGDAGSFIDPLTGEGIYYALKTGRYAAEAVANALERNDESAALTRYEQLWRGEFSGRVYFPGYAFQHFMNNSWFVDTFMRYTAKKQHRADLLADVVAHNRKRRELFKLLNPFYLEHHHHHH”, which protein production is on record?
Answer: failed

Question: With “MQSINFRTARGNLSEVLNNVEAGEEVEITRRGREPAVIVSKATFEAYKKAALDAEFASLFDTLDSTNKELVNRLEHHHHHH” as the sequence, how does the protein production read?
Answer: not failed

Question: For “MQSNLLAVLFALASALTIAWGTVVRHRIALRTPKDGSLRSSPLLNALMTPMWWAGMSTAMLAYFLQTVALGFGTLLVVQPVLVLSLMFTLPLSARFNGYRLRRTEIFWATLLTVAVGIMIVLGRPLPGNPHPPLDRWIPVLLVGVAVMGGMWLLAEYVLKKDKALILGLVTGALFGYVAVMSKAAVDLFVHQGITGLILNWEGYGLILTALLGTIVQQYSFNAGELQKSLPAMTIAEPIVAFSLGYLVLGEKFQVVDWEWIAMGIALLVMIVSTIALSRTSTMPAGSKR”, which protein production is on record?
Answer: failed

Question: For “MQSPEKIDPTWEDSVIDSFISFVRSYDGDFTCIYKLADTVSDEYSLQKIIDFLSSTPQGKQAFQKRPQLGVVDLPKLHQLPTDTLGYVYADQMLQNNLQPLQSHEIDNDYQFFKTHITETHDLWHIVTGADTSILGEIQLEAFYVSQLYASRFWLALLAKNLLKAVIYDIELSTPYMDAISTGWVMAKQAKPLFGLEWNLLWEKPLADVRTSLNIILPVNLEHHHHHH”, which protein production is on record?
Answer: not failed

Question: For “MQSPNNDYNATSKRGWFTRFLDGVEWLGNLLPHPITLFAVFCLFIIFISGIAAYFGVSAVDPRDGETVIKAVSLLNAEGIQRIVTNLVTNFTGFTPLGTVLVALLGVGVAERSGLISAAMRGLVMKAPPRLVTVTIVFAGVISNTAAELGYVVLVPLAAMIFYGLGRHPLAGLSAAFAGVSAGYSANLLIGTVDPLLSGITEEAAKIIDPAYTVGAEANWYFMMVSTFLIAIMGALITDKIVEPKLGKYNKDEASIDLSDQSSMDPLNKQEKRGLIYAGLSVLVLAGILALTVVPEWGILRHPETGDVKGSPFLKGVVVYIFFFFAIPGFVYGRTVETMRNDRDVIDAMSHSMSTMGMYIVLVFFAAQFVNFFKWTNFGTIFAINGAEFLTNIGMTGPIIFLFFIMVCGFVNLMLGSASAQWAITAPIFVPMLMLVGYSPEVIQAAYRIGDSVTNVITPMMSYFGLILAVAARYKKDLGIGTLVAMMLPYSMFFFVGWSVLFFLWVFVFGFPVGPAAPTYYN”, which protein production is on record?
Answer: not failed

Question: Which protein production does the source give for “MQSRLSKILRSSVVGVAVLALLAGCSNNADDTDADSTSTGNSAFPVSIEHEFGTTTIDDVPERVVTLGVTDADIVLALGTVPVGNTGYKFFENGLGPWTDELVEGKELTLLDSDSTPDLEQVAALEPDLIIGVSAGFDDVVYEQLSDIAPVVARPAGTAAYAVAREEATNLVARAMGQSEKGQELNEETDALIQAARDENPSFDGKTGTVILPYQGKYGAYLPGDARGQFLDSLGISLPEAVLSRDTGDSFFVDVPAESVKDVDGDVLLVLSNDENLDITAENPLFETLNVVQKDAVIVATTEERGAITYNSVLSVPFALEHLAPRIAEALK” here?
Answer: failed

Question: With “MQSYSDSKPGGATFALFETEHLKANIRRALVEAVLSPWQRTFLSDVLSKLERYGNRARLSHKQLLKLNEILGGNGTPRQDRVTTSRTTRHTRRPRFRSPSFLSRQIRWSRRRLARDAVVVALIVMVGLLYSVFETGPVQSFLGTVGKSSHVMGPVDQAFTVTDGDTVHVAGERAGTRLVGFNTPEKFSPQCEYERKLGERASSRLRELVKSPNLQLTKVPCACPAGSEGTDACNHGRSCGVLKVDGRDVGQILIGEGLAVPFICEGNRCPRTPRPWCGQQS” as the sequence, how does the protein production read?
Answer: failed

Question: With “MQTINTHPVQPLKLDSEVQRQMNFQFLTAMKAFFTLLTTEDNIDAVDELSSILIHSRAFELAAESMQTDPEVAHLIKERYYAPVHDVEQLLQYPADSLGYLYASTLKESGFERIDPEIIVNSDTAYIEHRWQQTHDIWHLVTGFSASGIDEIGLQAFYLAQFRLPLASMLIANALMSATLLAPEDLPQLLQTIERGWTMGLQAKPLFAQKWEEAWEKPLSQWRDELNIQAFS” as the sequence, how does the protein production read?
Answer: failed

Question: With “MQTPKSRPGSLELPQKKSPLPAPKVVRRLKPSGAESDPKTKTISKTQIPKVVADRRSARIPLNEKKRTGRIPELESTISQLQEELKKAKEELNRSEALKREAQEEAEDAKHQLMDINASEDSRIEELRKLSQERDKTWQSELEAMQRQHGMDSTALSSAINEVQKLKSKLFESESELEQSKYEVRSLEKLVRQLEEERVNSRDSSSSMEVEELKEAMNLSRQEITQLKSAVEAAETRYQEEYIQSTLQIRSAYEQTEAVKSRYSQREAELTEELNRTKDEIEGLRKELMEKVKEDESTGDLKKLESDLMEVRGSLMDKEMELQILRSAMEKKVETANTEAMEAELKRVKIQCEQWRKAAETAASILNNDEERTDSIETSKMLKKFGVLLKKNHK” as the sequence, how does the protein production read?
Answer: failed

Question: Which protein production does the source give for “MQTSIDPVFAGWDGSVAQARQLQQQLAQRVALRDEVSAAPALLAGFDVGFEDDGQTTRAAAVLLDAQTLLPLETHVARVPTSMPYVPGLLSFRELPALLRALALLARTPDLVFIDGQGIAHPRRFGIAAHFGVVTGLPSIGVAKQRLAGTFIEPGGERGDHSPILLAGAQIGWALRSKPRCNPLIVSPGHRVSMQGALDWTLRTLRAYRLPEPTRLADRLASRRGEIELQTQPTLLLEHHHHHH” here?
Answer: failed

Question: With “MQTTAAAQERYTRTAIFLHWCMTAMIVGLIGLGFYMGQQPPSPEKYALYELHKSLGVVTVLLLFARFIWRAANPPPELPTAYSQLLRTASHLGHFALYVLMFAVPVSGWVMSAAYGRPASLFGVPIPPPVTKSEDLAELWGTIHFALGSALALVIAGHTLFALKHHFIDKDGLLWRMWVRCP” as the sequence, how does the protein production read?
Answer: failed

Question: Which protein production does the source give for “MQVEQRTLNTAAHPFQITAYWLDQISDFETAVDYPIMIICPGGGFTYHSGREEAPIATRMMAAGMHTVVLNYQLIVGDQSVYPWALQQLGATIDWITTQASAHHVDCQRIILAGFSAGGHVVATYNGVATQPELRTRYHLDHYQGQHAAIILGYPVIDLTAGFPTTSAARNQITTDARLWAAQRLVTPASKPAFVWQTATDESVPPINSLKYVQAMLQHQVATAYHLFGSGIHGLALANHVTQKPGKDKYLNDQAAIWPQLALRWLQEQGLLAGNYLEHHHHHH” here?
Answer: not failed

Question: With “MQVNIILLAAGKGQRFQSSSPNKIGCATIKQLARINDKPLIVHSIDKLQPLLKNAYVHNFFVTLGANKNAIQTVLPQDISVIASQHWAEGMGHTLAESVHSIKATSSHVLVALADQALITTEHYQELLSASKEQPNKIIATLCEGQLMAPAIFPEKYFPLLVKIQGDKGAGKLLLQHAKKADAITCEDAKIDIDTFSDLERVRQHLEYALQDNQQSSL” as the sequence, how does the protein production read?
Answer: failed

Question: Which protein production does the source give for “MQVRTLTPDDLPQACALCMDAFMQAVAPTLSAQGIETFTQVSAPQAFAERMQGDNLMLACFVEGAIAGLIELKEGRHIAMLFIAPGLQRQGIGKRLMNAALEHASAEVVTVKASLSSVPAYQRYGFTLAGDVGEFAGLVYQPMEKRLPTQPALEHHHHHH” here?
Answer: not failed

Question: For “MQWDPGGATESRSKLYIYLRFLRIEQVFFSLPMAYMGAFLAIREIPPIQVLILMFFSLFFLRTAGMTNDNLADREIDAMNPRTKSRPLVTGKITVREAKLLITISLIGFFITAYLINLYALIFAPIVALIVMSYPYMKRYTAFANYHLASIQGLAVFSGAVASLGLYAKSFTQLVTGIPWLFVISTVFWAVGFDLYNHIPDADFDKKMGLHSFAVLLGDRALMFAGLNQLISVLLALFGDIQFNLGIIAYIATILHGLIMGYAYYSATRGNFGRAFYYNIYSSIVLGIGIIIDIIV”, which protein production is on record?
Answer: failed

Question: For “MQWRFCLTTVLGVVLSFSPSVKVQAQGLESLTYYTENYPPLNFAKEDGKPAGIAVDLLLEAAAAVNVTLNLDQIFVQPWPRSYRSALLKQDGVLFSTTRTTHRENLFNWVGPIADIKVVVLARKSSQIKVNDPIELGNYRIGVIRDDIGEQQLLQLGVPRESMVEGSTVSSLAEQLLKKRIDLLAYDERTALWWMSQDSYPVEEFETVYVLMQGSLYYAFNKNIDKSVLNDLQKGIELIKNSVNENGVTRYQAILDKY”, which protein production is on record?
Answer: failed

Question: With “MQYIKIHALDNVAVALADLAEGTEVSVDNQTVTLRQDVARGHKFALTDIAKGANVIKYGLPIGYALADIAAGEHVHAHNTRTNL” as the sequence, how does the protein production read?
Answer: not failed

Question: With “MRAADAPDAPLPEDRRNAPVWFAHDLEAPRCTALFPRLADRRPALVVVGGFLGSGKTTFLNNCIEYHRARERFVAVIQNEVGATGVDARLMGDGAEVLALDEGCVCCSLAGSLAGGIRAITADFTPEVILLETTGLANPLNLLAELDTLRDMVRLDAVVTVVDAANIVPTLRDSDIARDQIRGADIIVCNKCDTVDETGRAALRATLTGLNGRAALHETSFGRIHPSLFMALEGERPPRGLMPAPHGTHATHADEGFAAVRLFFSGTIDEAALAPLLQQCPGAPFRIKGIVRVTDDEAPRLVQCVGARCEVERLDGGFEGTPFLVFIGRNPDETALLEHWAALGATAEPPAPQAEADTQPAQATKSASGGQSSDATRGCHDHHLEHHHHHH” as the sequence, how does the protein production read?
Answer: failed

Question: Which protein production does the source give for “MRAERGPPKQTISLPVALRKDRDMSEIAPQNRRIRPAAIVVLFLTIALTGCLLALGTWQVQRLFWKLDLIERVDVRAHAEPVDAPAASDWPALGNPSDYEYRRVKLTGTLLNDREVQVYTVTDLGPGYWVMTPLRRDDGSSIIVNRGFVPSDRRDPSSRTGGEPTGNVEIVGLMRAPETGGLFLRTNDPANGRWYSRNIPQITQASGLSDVAPFYVDADATPNPGGLPVGGKTMLTFPNNHLSYAVTWYILAAMVVAAGWYVLRNLNAPKSKRDAD” here?
Answer: failed

Question: With “MRAFIAIDVSESVRDALVRAQDYIGSKEAKIKFVERENFHITLKFLGEITEEQAEEIKKILEKIAKKYKKHEVNVRGIGVFPNPNYVRVIWAGVENDEIIKKIAKEIDDELAKLGFKKEGNFVAHITLGRVKFVKDKLGLAMKLKELANEDFGSFIVEAIELKKSTLTPKGPIYETLARFELSE” as the sequence, how does the protein production read?
Answer: not failed

Question: For “MRAGVREVIDDSSERTLQQVIERAFLRTKGAIIRQKRVFGFVSAKGGDGGSCIAANFAFALSQEPDIHVLAVDISLPFGDLDMYLSGNTHSQDLADISNASDRLDKSLLDTMVQHISPSLDLIPSPATFEKIVNIEPERVSDLIHIAASFYDYIIVDFGASIDHVGVWVLEHLDELCIVTTPSLQSLRRAGQLLKLCKEFEKPISRIEIILNRADTNSRITSDEIEKVIGRPISKRIPQDEDAMQESLLSGQSVLKVAPKSQLSKTIVDWALHLNGVSRPNKRSIWERLKIK”, which protein production is on record?
Answer: not failed

Question: Which protein production does the source give for “MRAISQYIAIFVITLTLSGCFFQNSDDQRWELAPQGTTSFALSRDARFALFFVKNDSIPEKNESQVKSGLHFWDLVENKELTFFGDQDQDKSTVSYIRISDNSRFAITATQTNFAVWDLGMGISEGLWSISDGIIRDVAIASNGQQVLLGLSNGKAIYINLATGRRLEFLAHREKVNSVALSANGKFALSGGNDYFAYLWDTETGQILRTFEHEKRVSRTALQRDGKYAFTADGGNEGFIWDLKTGEKITELSTLARQQVYSTARFSDDGQLLVTGSPSGTVNVWNTTSGKKLEQWRSEPLKDARPPTAVVYDVAIDKQQRVVSATSAGIAQAWLIE” here?
Answer: failed

Question: Which protein production does the source give for “MRAKKRKFLQKEELSKLLQSLDMSQIGFGWFVMLAAKTGMRYAEALAITPADFDWTAQTISINKTWDYKYNKGFAKTKTLSSVRTIKIDWQIVGQFKPLIKDFPEDEPIFVEKFGDGTYKRQFNSTINNFLAVKCNETGITQISFHALRHTHASVLLAEGVSIHTISARLGHADVGVTQETYAHVLDELQKKDDQKMLSVLMQIALEHHHHHH” here?
Answer: not failed
